Measured values reported in patent US20030022265.

Legend:
[1] = molecular target: T1, fusion protein comprising Golgi recognition signal and transmembrane domain of yeast Golgi protein Ste13, cleavage site of yeast α-factor, and yeast invertase (UniProt P33894)
T1 sequence: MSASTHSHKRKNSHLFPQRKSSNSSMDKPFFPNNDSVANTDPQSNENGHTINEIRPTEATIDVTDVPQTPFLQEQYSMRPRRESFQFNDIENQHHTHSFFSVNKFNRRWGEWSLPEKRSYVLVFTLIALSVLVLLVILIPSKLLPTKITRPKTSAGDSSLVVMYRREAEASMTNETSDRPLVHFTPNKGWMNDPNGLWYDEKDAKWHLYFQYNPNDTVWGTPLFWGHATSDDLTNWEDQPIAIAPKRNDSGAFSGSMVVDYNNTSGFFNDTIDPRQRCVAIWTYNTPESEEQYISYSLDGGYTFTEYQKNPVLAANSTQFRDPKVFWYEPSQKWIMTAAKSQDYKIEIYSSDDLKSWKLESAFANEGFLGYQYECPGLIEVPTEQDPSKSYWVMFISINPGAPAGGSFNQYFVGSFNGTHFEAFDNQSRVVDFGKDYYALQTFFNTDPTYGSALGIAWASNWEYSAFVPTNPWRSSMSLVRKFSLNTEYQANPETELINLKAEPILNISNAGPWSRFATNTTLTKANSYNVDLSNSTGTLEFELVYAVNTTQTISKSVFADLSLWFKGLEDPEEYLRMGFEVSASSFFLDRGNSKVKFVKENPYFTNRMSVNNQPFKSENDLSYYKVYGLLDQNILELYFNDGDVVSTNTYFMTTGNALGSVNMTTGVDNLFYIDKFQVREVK

[2] = test system: product of plasmid pADH-SteInv
[3] = test system: plasmid library of pADH-SteSubInv with random substitution of the 5th and 6th amino acids of cleavage region of α-factor

Kex2
viability of cotransformed suc2, kex2 mutant yeast on sucrose-containing plate [1]: transformants of test group 1 were survived both on glucose-containing and sucrose-containing plates | viability of cotransformed suc2, kex2 mutant yeast on sucrose-containing plate [2]: transformants of test groups 2 to 4 were not able to grow on sucrose plates | residues found at the randomised substrate positions in colonies grown on sucrose plates [3]: Various amino acids such as D, E, A, V, P, S, Q, K, R, and H were found at the 6th amino acid, while, solely R was found at the 5th amino acid
